Measurements published in the nanobody polyreactivity screen of Harvey et al. (2022).

Assay: yeast display, Sf9 membrane polyspecificity reagent, FACS + sequencing; frameworks hold sequencing errors
Method in brief: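 Polyreactivity labels are assigned by the sorting gate from which each nanobody was recovered. The gates were low and high (top ~1%), set on anti-HA fluorescence for expression and streptavidin fluorescence for reagent binding. Before sorting, galactose-induced (36–48 hours) yeast display cells were stained for 1 hour at 4 °C with 10% biotinylated, detergent-solubilized Sf9 membrane reagent.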
With “QVQIVESGGGLVQAGGSLRLSCAAYGRTFSYYTMGWYRQAPGKERELVARISNRGTNTYYADSEKGRFTISRDNAKNTVYLQMNSLKPEDPAVYYCAKYYSTSIVGYDSWGQGTQVTVSS” the “polyreactivity (PSR sort gate)” value was “low polyreactivity”.
For “QVQIVESGGGLVQAGGSLRLSCASSGIIFWPNAMGWYRQAPGKERELVASITSGGYTYYADYVKGRFTISRDNAKNTVYLQMNSLKPEDTAVYYCAAEWYPYGPKRYYWGQGTQVTVSS”, the “polyreactivity (PSR sort gate)” value was “low polyreactivity”.
With “QVQIVESGGGLVQAGGSLRLSCASSGSTSYRNAMGWYRQAPGKEREFVASISKSTDSTYYADSVKGRFTISRDNAKNTVYLQMLSLKPEDTAVSYCADVQGYKGLQDDSWGQGTQVTVSS” the “polyreactivity (PSR sort gate)” value was “high polyreactivity”.
With “QVQIVESGGGLVQAGGSLRLSCDASGFIFYYYAMGWYRQAPGKERELVATITSGGGSTYYADSVKGRFTISRDNAKNTVYLQMNSLKPEDTAVYYCAAKGPYYKSSRTGDYWGQGTQVTVSS” the “polyreactivity (PSR sort gate)” value was “low polyreactivity”.
With “QVQIVESGGGLVQAGGSLRLSCDASGSIFNYNAMGWYRQAPGKEREFVAAINQGGTSTYYADSVKGRFTISRDNAKNTVYLQINSLKPEDTAVYYCAALITVYRGSYEYWGQGTQVTVSS” the “polyreactivity (PSR sort gate)” value was “low polyreactivity”.
In the case of “QVQIVESGGGLVQAGGSLRLSFAASGSTFVLYAMGWYRPAPGKERELVAAISGGATTTYADSVKGRFTISRDNAKNSVYLQMNSLKPEDTAVYYCAADFYTFVVSGAAMDYWGQGTQVTVSS”, the “polyreactivity (PSR sort gate)” value is reported as “low polyreactivity”.
With “QVQIVESGGGLVQAGGSLRLTCAASGFTFTDYAMGWYRQAPGIERELVAVITYDSTYYADSVKGRFTISRDNAKNTVSLHMNSLKPEDTAVYYCAADSYDWGEFDYWGQGTQVTVSS” the “polyreactivity (PSR sort gate)” value was “low polyreactivity”.
For “QVQIVESGGGLVQAGGSLRLTCAASGSILWYNTMGWYRQAPGKERELVAAIRTSGSRTYYADSVKGRFTISRDNAKNTVYVQMNSLKPEDTAVYYCAAERGSQRVRSGYWGQGTQVTVSS”, the “polyreactivity (PSR sort gate)” value was “high polyreactivity”.
For “QVQIVESGGGLVQAGGSLRVSCAASGRTFRLYAMGWYRQAPGKERELVAAITRGGRTNYADSVKGRFTISRDNAKYTVYLHMNSLKPEDTAVYYCAARYVERHTDYYYWGQGSQVTVSS”, the “polyreactivity (PSR sort gate)” value was “low polyreactivity”.
In the case of “QVQIVESGGGLVQAGGSLRVSCAPSGRTFLPYGMGWYRQAPGKEWELVASITSGGSTNYADSVKGRFTISRDNAQNTVYLQMNSLKPEDTAVYYCNKQTIPEWPWVKYSNGYDHWGHGTQVTVSS”, the “polyreactivity (PSR sort gate)” value is reported as “low polyreactivity”.
For “QVQIVESGGGLVQAGGSLSLSCAASGFTLVGYAMGWYRQAPGKERELVAAISSGGRTKYADSVKGRFTISRDNAKNTVYLQMNSLKPEVTAVFYCAAPYNVRWRYGYWGQGTQVTVSS”, the “polyreactivity (PSR sort gate)” value was “high polyreactivity”.
In the case of “QVQIVESGGGLVQAGGSLSLSCAASGRTFQRNAMGWYRQAPGKERELVAAITTGSRTYYADSVKGRFTISRDNAKNTVYLQMNSLKPEDTAVYYCAAVATRRDYGYWGQGTQVTVLS”, the “polyreactivity (PSR sort gate)” value is reported as “high polyreactivity”.
For “QVQIVESGGGLVQAGRSLRLSCAASGIIFDHYAMGWYRQAPGKERELVAAITTGGGNTYYADSVKGRFTISRDNAKNTVYLQMNCLKPEDTAVYYCNDDGLWGRRWGDYYGYDYWGQGTQVTVSS”, the “polyreactivity (PSR sort gate)” value was “low polyreactivity”.
With “QVQIVESGGGLVQAGVSLRLSCAPSGFIFSVYAMGWYRQAPGKEMELVAGITRNGGITYYADSVKWRFTISRDNAKNTVYLQMNSLKPEDSAVYYCAAQAPKRRPFYGYYWGQGTQVTVSS” the “polyreactivity (PSR sort gate)” value was “high polyreactivity”.
With “QVQIVESGGGLVQEGGSLRISCAASGFTFTANAMGWYRQAPGKERELVAAITRNGGRTYYADSVKGRFTISRDNAKNTVYFQMNSLKPEDTAVYYCAKPTSQRIHDDYDYWGQGTQVTVSS” the “polyreactivity (PSR sort gate)” value was “high polyreactivity”.
In the case of “QVQIVESGGGLVQEGGSLRLSFAASGSTFYYYPMGWYRQAPGKERELVAAITSGDTTNYADSVKGRFTISRDNAKNTVYLQMNSLKPEDTAVYYCAVDLNTTAFYPVAATYLDDYWGQGTQVTVSS”, the “polyreactivity (PSR sort gate)” value is reported as “low polyreactivity”.
With “QVQIVESGGRLDQAGGILRLSCAASGRTFTVNAMGWNRQAPGKERELVATIRSGGTTNYAASVKGRFTISRDNAKNTVYLTMNRLKPEDTAVYYCNARVLTRTSVVRYYYWGQGTQVTVSS” the “polyreactivity (PSR sort gate)” value was “high polyreactivity”.
For “QVQIVESGGRLVQAAGRLSLTCAASGSIFVWNAMGWYRQEPGKEREVVAAITNIGGRTYYADSVKGRFTISRDNAKYTVYLQMNSQKPEATAGYYCNSDLVSRLGWSTTSDSWGQGTQVTVSS”, the “polyreactivity (PSR sort gate)” value was “high polyreactivity”.
For “QVQIVESGGVLDHAGGSLRLSCAATVGTSIPNAMGWYRQAPGKERELVAAITRSGGRTYYADSVKGRFTISRDNATNTVYLQMNSLKREDTAVYYCAARVRTTSVRGRYDYWGQGTQVTVSS”, the “polyreactivity (PSR sort gate)” value was “high polyreactivity”.
With “QVQIVESGGVLVQAGGSLRLSCAASGSITYFNAMGWYRQAPGKERELVAAISYSGGSTYYADSVKGRFTISRDNAKNTVYLQMNSLKPEDTAVYYCAADRLIGWRKTYYYWGQGTQVTVSS” the “polyreactivity (PSR sort gate)” value was “high polyreactivity”.
In the case of “QVQIVESGRGLVQAGGSLRLSCAASGSTFKYYAMGWYIQAPGKERELVAAISWTGGSTYYADSVKGRFTISRDNAKNTVYLQMNSLKPEDTAVYYCNALGHVQGYDYWGQGTQVTVSS”, the “polyreactivity (PSR sort gate)” value is reported as “high polyreactivity”.
With “QVQIVESGRGLVQAGGSLRLSCASSGFTFVSYAMGWYRQAPGKERELDASISKRGGTTYYADSVKGRFTISRDNAKNTVYLQMNSLKPEDTAVYYCYARDTRRYVTYDSGYDYWGQGTQVTVSS” the “polyreactivity (PSR sort gate)” value was “high polyreactivity”.
For “QVQIVESRGCLVQAGGSLRLICAASGSIFLANAMGWYRQAPRKEREFVPAITSSGGSTYYADSVKGRFTISRDNAKNSVYLQMNSLKPEDTAVYYCNVRPRYRWRSTPYGYWGQGTQVTVSS”, the “polyreactivity (PSR sort gate)” value was “high polyreactivity”.
For “QVQIVESRGGIVQAGGSLRLRCAASGSTFAGNAMGWYRQPPGKERELVAAITSSGGTTYYADSVKGRFTISRDNEKNTVYLQMNSLKPEDSAVYYCAAKSRRTRRSYYWGQGTQVNVSS”, the “polyreactivity (PSR sort gate)” value was “high polyreactivity”.
In the case of “QVQIVESRVGLVQAGGSLRLSCAAYGSIFYYNAMGWYRQAPGKERELVAAITSSGGSTYADSVKGRFTISRDNAKNTVYLQMNSLKQEDTAVYYCATVAHGLWSGSGYIYAYDYWGQGTQVSVSS”, the “polyreactivity (PSR sort gate)” value is reported as “low polyreactivity”.
For “QVQLAESGGGLVQAGGSLRLSCAASGSTFPRNPMGWYRQAPGKERELVATITSSGGGTYYADSVKGRFTISRDNAKITVYLQMNSLKPEDTAVYYCNADGPAGDAFDYWGQGTQVTVSS”, the “polyreactivity (PSR sort gate)” value was “low polyreactivity”.
In the case of “QVQLAESGGRLVQAGGRLRLSCAASGRTSTCYAMGWYRQPPGKERELVAAISYRGGSTYYADSVKGRFTISRDNAKNSVYLHLNSLKPEDTAVYYCAAKWYWRGDYWGQGTQVTVSS”, the “polyreactivity (PSR sort gate)” value is reported as “high polyreactivity”.
For “QVQLDESGGGLVQAGGSLRLSCAASGRTFGVYAMGWYRQAPGKERELVAAIRWSGGGTYYADSVKVRFTISRDNAKNTVYLQMNSLKPEDTAVYYCAATLENSPYTRYTDMYYWGQGTQVTVSS”, the “polyreactivity (PSR sort gate)” value was “low polyreactivity”.
In the case of “QVQLEDSGGCLVQAGGRLRLSCAASGITYGRNTMGRYRQAPGKERELVAAIDSGGNTYADSVKGRFTISRDNAKITVYLQMNSLKPEDTAVYYCAVYGGEFSSYGYWGQGTQVTVSS”, the “polyreactivity (PSR sort gate)” value is reported as “low polyreactivity”.
For “QVQLEDSGGGLVQAGGSLGLSCAASGITFSVYDMGWYRQAPGKERQLVAAISWSGGSTYYADSVKGRFTISRDNAKNTVFLQMNSLKPDDTAVYYCAAEVDYWYELYDYWGLGTQVTVSS”, the “polyreactivity (PSR sort gate)” value was “high polyreactivity”.
With “QVQLEDSGGGLVQAGGSLRLSCAASGGTFRYNSMGWYRPAPGKERELVAGITWGGGSTYYADSVKGRFTISRDYAKNSVYLQMNSLKPEDTAVYYCNAVRPRQWWTHYGYWGQGTQVTVSS” the “polyreactivity (PSR sort gate)” value was “high polyreactivity”.
With “QVQLEDSGGGLVQAGGSLRLSCAASGRIFGYNAMGWYRQAPGKERELVAAITTSGGSTYYADSVKGRFTISRDNAKNTVYLQMNSLKPEDTAVYYCARDSLQVFYPYASDDYWGQGTQVTVSS” the “polyreactivity (PSR sort gate)” value was “low polyreactivity”.
For “QVQLEDSGGGLVQAGGSLRLSCAASGRIFYAYAMGWYRPAPGKEREFVASISGSGGSTYYADSVKGRFTISRDNAKNTVYLQMNSLKPEDTAVYYCAKRYPFFSSGLSPYNYWGQGTQVTVSS”, the “polyreactivity (PSR sort gate)” value was “high polyreactivity”.
With “QVQLEDSGGGLVQAGGSLRLSCAASGSIFYSNSMGWYRQAPGKERELVAAISSSGSRTYYADSVKGRFTISRDNAKNTVYLQMNSLKPEYTAVYYCSAVIRYTRSYDYWGQGTQLTVSS” the “polyreactivity (PSR sort gate)” value was “high polyreactivity”.
With “QVQLEDSGGGLVQAGGSLRLSSAASGSTFAVYAMGWYRQAPGKERELVAAISFSGSTYADSVKGRFTISRDNAKNTVYLQMNSLKPEDTAVYYCAKEYRVFGWWYTKGDYWGQGTQVTVSS” the “polyreactivity (PSR sort gate)” value was “low polyreactivity”.
In the case of “QVQLEDSGGGLVQAGRSLLLSFAASGNTFWLNAKGRYRQAPGKERELVAAITYTDGSTYADSVKGRFTISRDNAKITVYLQMNSLKPEDSAVYYCAARYQWDWRDYYYWGQGTQVTVSS”, the “polyreactivity (PSR sort gate)” value is reported as “low polyreactivity”.
With “QVQLEEAGGGLVQAGGSLRLSCAASARIIARYAMGWYRQAPGKERELVAAITGSGGSTYYADSVKGLFTISRDHANNTVYLQMNCLKPEDTAVYYCAARSVYTYYRLDYWGQGTQVTVSS” the “polyreactivity (PSR sort gate)” value was “high polyreactivity”.
In the case of “QVQLEESGAGLVQAGGRLRLSCAASGITFILYAMGWYRHAPGKERELVAAISSGGRTKYADSEKGRFTISRDNAKNTVYLQMTSLKPEDTAVYYCNVSYLVYRWNFGWSMDYWGQGTQVTVSS”, the “polyreactivity (PSR sort gate)” value is reported as “low polyreactivity”.
For “QVQLEESGAGLVQAGGSLRLSCAASGRTFYRYAMGWYIQAPGKERELVAAITSGDRTYYADSVKGRFTISRDNALNTVYLQMNSLKPEYTAVYYCAARRDYWARYYYWGQGTQVTVSS”, the “polyreactivity (PSR sort gate)” value was “high polyreactivity”.
In the case of “QVQLEESGAGLVQAGGSLRLSCAASGYIFDKYTLGWYRQAPGKERELVAVISSRGGSTYYADSVKGRFTISRDNAKNTVYVQMNSRKPEDTAVYYCAARFYRPSVPYRYDYWGQGTQVTVSS”, the “polyreactivity (PSR sort gate)” value is reported as “high polyreactivity”.
With “QVQLEESGGAFVQAGGSLRLSCAASGFIFVPYSMGWYREAPGKEREFVAAITASGGNTYYADSVKGRFSISRDNAKNTVYLQMNSVKPEDTAVYYCAADISGSLESLDYWGQGTQVTGSS” the “polyreactivity (PSR sort gate)” value was “low polyreactivity”.
